Data as given in article PMC5946489, “Inactivation of the tight junction gene CLDN11 by aberrant hypermethylation modulates tubulins polymerization and promotes cell migration in nasopharyngeal carcinoma”.

Target: GST-GATA1 (UniProt P15976 1-413)
Experiment: EMSA; GATA1 antibody used for supershift; Pull-down: probes immobilised on M-280 beads in 5 mM Tris-HCl pH 7.5, 0.5 mM EDTA, 1 M NaCl; 100 ug nuclear extract; washes in binding buffer (composition not given) with 0.5% NP40. EMSA as described previously (ref. 9); temperature not stated
Conditions: protein: commercial; tags: GST; label: 5'-biotin; blunt

GST-GATA1, sequence (P15976 whole entry): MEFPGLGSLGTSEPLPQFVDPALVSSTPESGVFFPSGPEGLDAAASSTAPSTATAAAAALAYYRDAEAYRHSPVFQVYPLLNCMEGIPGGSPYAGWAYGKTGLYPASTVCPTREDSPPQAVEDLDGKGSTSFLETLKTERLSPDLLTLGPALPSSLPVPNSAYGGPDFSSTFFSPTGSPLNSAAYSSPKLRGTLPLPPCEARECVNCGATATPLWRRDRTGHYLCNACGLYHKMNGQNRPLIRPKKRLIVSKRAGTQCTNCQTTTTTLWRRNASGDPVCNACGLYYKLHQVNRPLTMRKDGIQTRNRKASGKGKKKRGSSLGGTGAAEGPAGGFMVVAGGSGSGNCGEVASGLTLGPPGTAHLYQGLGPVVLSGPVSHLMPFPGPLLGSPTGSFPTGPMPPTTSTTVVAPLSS

B1: GATA1/2 WT probe (dsDNA)
DNA 1: CTGCCGCCGATTGGTGCTCGC
DNA 2: GCGAGCACCAATCGGCGGCAG
  binding result: binds
